One molecule from article PMC7036032 can be followed below.

In the test the target is T1, CstF77 (human), Q12996.
T1 chain: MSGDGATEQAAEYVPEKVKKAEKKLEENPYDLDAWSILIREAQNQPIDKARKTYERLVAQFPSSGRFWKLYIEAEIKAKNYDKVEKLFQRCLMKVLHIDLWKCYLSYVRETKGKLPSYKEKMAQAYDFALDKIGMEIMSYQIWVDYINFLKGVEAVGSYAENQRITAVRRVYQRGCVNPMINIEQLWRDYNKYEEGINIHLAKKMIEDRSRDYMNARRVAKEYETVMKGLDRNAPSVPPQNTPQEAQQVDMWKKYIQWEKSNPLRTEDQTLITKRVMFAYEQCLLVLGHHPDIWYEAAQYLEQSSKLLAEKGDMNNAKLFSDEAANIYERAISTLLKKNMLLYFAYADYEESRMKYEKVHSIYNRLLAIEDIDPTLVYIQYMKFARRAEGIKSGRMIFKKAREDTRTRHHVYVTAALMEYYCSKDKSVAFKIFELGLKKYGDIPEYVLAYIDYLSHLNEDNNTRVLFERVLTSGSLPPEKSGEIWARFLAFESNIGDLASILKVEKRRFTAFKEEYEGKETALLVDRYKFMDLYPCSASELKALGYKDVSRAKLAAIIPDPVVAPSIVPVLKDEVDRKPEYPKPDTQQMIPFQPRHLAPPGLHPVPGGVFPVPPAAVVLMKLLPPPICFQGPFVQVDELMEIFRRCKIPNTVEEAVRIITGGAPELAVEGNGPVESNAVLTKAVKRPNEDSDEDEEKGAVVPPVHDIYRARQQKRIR
Kind of test: cryo-EM structure. The note with it: remark: other sources report otherwise.

B1: CstF77, Q12996 1-717 (natural protein)
chain: T1 chain
Broadly, the stoichiometry N is the number of molecules, sites or subunits per partner or assembly. As to B1, the stoichiometry N turned out to be 2.
